In patent publication US20230158141A1 (YAFEI SHANGHAI BIOLOG MEDICINE SCIENCE AND TECHNOLOGY, published 2023):

B1: IL-10 Thr6Cys-R4-7 (ligand, human, UniProt P22301 19-178, looked up)
chain: SPGQGCQSENSCTHFPGNLPNMLRDLRDAFSRVKTFFQMKDQLDNLLLKESLLEDFKGYLGCQALSEMIQFYLEEVMPQAENQDPDIKAHVNSLGENLKTLRLRLRRCHRFLPCENKSKAVEQVKNAFNKLQEKGIYKAMSEFDIFINYIEAYMTMKIRN
modifications: R4-7 on Cys 6
notes: mature
B2: IL-10 Asn45Cys-R4-18 (ligand, human, UniProt P22301 19-178, looked up)
chain: SPGQGTQSENSCTHFPGNLPNMLRDLRDAFSRVKTFFQMKDQLDCLLLKESLLEDFKGYLGCQALSEMIQFYLEEVMPQAENQDPDIKAHVNSLGENLKTLRLRLRRCHRFLPCENKSKAVEQVKNAFNKLQEKGIYKAMSEFDIFINYIEAYMTMKIRN
modifications: R4-18 on Cys 45
notes: mature
B3: IL-10 Asn148Cys-R4-18 (ligand, human, UniProt P22301 19-178, looked up)
chain: SPGQGTQSENSCTHFPGNLPNMLRDLRDAFSRVKTFFQMKDQLDNLLLKESLLEDFKGYLGCQALSEMIQFYLEEVMPQAENQDPDIKAHVNSLGENLKTLRLRLRRCHRFLPCENKSKAVEQVKNAFNKLQEKGIYKAMSEFDIFICYIEAYMTMKIRN
modifications: R4-18 (printed R418) on Cys 148
notes: mature
B4: IL-10 Arg27Cys-R4-20 (ligand, human, UniProt P22301 19-178, looked up)
chain: SPGQGTQSENSCTHFPGNLPNMLRDLCDAFSRVKTFFQMKDQLDNLLLKESLLEDFKGYLGCQALSEMIQFYLEEVMPQAENQDPDIKAHVNSLGENLKTLRLRLRRCHRFLPCENKSKAVEQVKNAFNKLQEKGIYKAMSEFDIFINYIEAYMTMKIRN
modifications: R4-20 on Cys 27
notes: mature
B5: IL-10 Asp144Cys-R4-11 (ligand, human, UniProt P22301 19-178, looked up)
chain: SPGQGTQSENSCTHFPGNLPNMLRDLRDAFSRVKTFFQMKDQLDNLLLKESLLEDFKGYLGCQALSEMIQFYLEEVMPQAENQDPDIKAHVNSLGENLKTLRLRLRRCHRFLPCENKSKAVEQVKNAFNKLQEKGIYKAMSEFCIFINYIEAYMTMKIRN
modifications: R4-11 on Cys 144
notes: mature
B6: IL-10 Asp28Cys-R4-11 (ligand, human, UniProt P22301 19-178, looked up)
chain: SPGQGTQSENSCTHFPGNLPNMLRDLRCAFSRVKTFFQMKDQLDNLLLKESLLEDFKGYLGCQALSEMIQFYLEEVMPQAENQDPDIKAHVNSLGENLKTLRLRLRRCHRFLPCENKSKAVEQVKNAFNKLQEKGIYKAMSEFDIFINYIEAYMTMKIRN
modifications: R4-11 on Cys 28
notes: mature
B7: IL-10 Asp41Cys-R4-11 (ligand, human, UniProt P22301 19-178, looked up)
chain: SPGQGTQSENSCTHFPGNLPNMLRDLRDAFSRVKTFFQMKCQLDNLLLKESLLEDFKGYLGCQALSEMIQFYLEEVMPQAENQDPDIKAHVNSLGENLKTLRLRLRRCHRFLPCENKSKAVEQVKNAFNKLQEKGIYKAMSEFDIFINYIEAYMTMKIRN
modifications: R4-11 on Cys 41
notes: mature
B8: IL-10 Asp28Cys-S48 (ligand, human, UniProt P22301 19-178, looked up)
chain: SPGQGTQSENSCTHFPGNLPNMLRDLRCAFSRVKTFFQMKDQLDNLLLKESLLEDFKGYLGCQALSEMIQFYLEEVMPQAENQDPDIKAHVNSLGENLKTLRLRLRRCHRFLPCENKSKAVEQVKNAFNKLQEKGIYKAMSEFDIFINYIEAYMTMKIRN
modifications: S48 on Cys 28
notes: mature
B9: IL-10 Gln38Cys-R4-19 (ligand, human, UniProt P22301 19-178, looked up)
chain: SPGQGTQSENSCTHFPGNLPNMLRDLRDAFSRVKTFFCMKDQLDNLLLKESLLEDFKGYLGCQALSEMIQFYLEEVMPQAENQDPDIKAHVNSLGENLKTLRLRLRRCHRFLPCENKSKAVEQVKNAFNKLQEKGIYKAMSEFDIFINYIEAYMTMKIRN
modifications: R4-19 on Cys 38
notes: mature
B10: IL-10 Arg27Cys-S48 (ligand, human, UniProt P22301 19-178, looked up)
chain: SPGQGTQSENSCTHFPGNLPNMLRDLCDAFSRVKTFFQMKDQLDNLLLKESLLEDFKGYLGCQALSEMIQFYLEEVMPQAENQDPDIKAHVNSLGENLKTLRLRLRRCHRFLPCENKSKAVEQVKNAFNKLQEKGIYKAMSEFDIFINYIEAYMTMKIRN
modifications: S48 on Cys 27
notes: mature
B11: IL-10 Asp44Cys-S48 (ligand, human, UniProt P22301 19-178, looked up)
chain: SPGQGTQSENSCTHFPGNLPNMLRDLRDAFSRVKTFFQMKDQLCNLLLKESLLEDFKGYLGCQALSEMIQFYLEEVMPQAENQDPDIKAHVNSLGENLKTLRLRLRRCHRFLPCENKSKAVEQVKNAFNKLQEKGIYKAMSEFDIFINYIEAYMTMKIRN
modifications: S48 on Cys 44
notes: mature
B12: IL-10 Asp25Cys-R4-12 (ligand, human, UniProt P22301 19-178, looked up)
chain: SPGQGTQSENSCTHFPGNLPNMLRCLRDAFSRVKTFFQMKDQLDNLLLKESLLEDFKGYLGCQALSEMIQFYLEEVMPQAENQDPDIKAHVNSLGENLKTLRLRLRRCHRFLPCENKSKAVEQVKNAFNKLQEKGIYKAMSEFDIFINYIEAYMTMKIRN
modifications: R4-12 on Cys 25
notes: mature
B13: IL-10 Asp144Cys-S48 (ligand, human, UniProt P22301 19-178, looked up)
chain: SPGQGTQSENSCTHFPGNLPNMLRDLRDAFSRVKTFFQMKDQLDNLLLKESLLEDFKGYLGCQALSEMIQFYLEEVMPQAENQDPDIKAHVNSLGENLKTLRLRLRRCHRFLPCENKSKAVEQVKNAFNKLQEKGIYKAMSEFCIFINYIEAYMTMKIRN
modifications: S48 on Cys 144
notes: mature
B14: IL-10 Arg159Cys-R4-20 (ligand, human, UniProt P22301 19-178, looked up)
chain: SPGQGTQSENSCTHFPGNLPNMLRDLRDAFSRVKTFFQMKDQLDNLLLKESLLEDFKGYLGCQALSEMIQFYLEEVMPQAENQDPDIKAHVNSLGENLKTLRLRLRRCHRFLPCENKSKAVEQVKNAFNKLQEKGIYKAMSEFDIFINYIEAYMTMKICN
modifications: R4-20 on Cys 159
notes: mature
B15: IL-10 Asn45Cys-S48 (ligand, human, UniProt P22301 19-178, looked up)
chain: SPGQGTQSENSCTHFPGNLPNMLRDLRDAFSRVKTFFQMKDQLDCLLLKESLLEDFKGYLGCQALSEMIQFYLEEVMPQAENQDPDIKAHVNSLGENLKTLRLRLRRCHRFLPCENKSKAVEQVKNAFNKLQEKGIYKAMSEFDIFINYIEAYMTMKIRN
modifications: S48 on Cys 45
notes: mature
B16: IL-10 Asn148Cys-S48 (ligand, human, UniProt P22301 19-178, looked up)
chain: SPGQGTQSENSCTHFPGNLPNMLRDLRDAFSRVKTFFQMKDQLDNLLLKESLLEDFKGYLGCQALSEMIQFYLEEVMPQAENQDPDIKAHVNSLGENLKTLRLRLRRCHRFLPCENKSKAVEQVKNAFNKLQEKGIYKAMSEFDIFICYIEAYMTMKIRN
modifications: S48 on Cys 148
notes: mature
B17: IL-10 Gln38Cys-S48 (ligand, human, UniProt P22301 19-178, looked up)
chain: SPGQGTQSENSCTHFPGNLPNMLRDLRDAFSRVKTFFCMKDQLDNLLLKESLLEDFKGYLGCQALSEMIQFYLEEVMPQAENQDPDIKAHVNSLGENLKTLRLRLRRCHRFLPCENKSKAVEQVKNAFNKLQEKGIYKAMSEFDIFINYIEAYMTMKIRN
modifications: S48 on Cys 38
notes: mature
B18: IL-10 Asp44Cys-R4-11 (ligand, human, UniProt P22301 19-178, looked up)
chain: SPGQGTQSENSCTHFPGNLPNMLRDLRDAFSRVKTFFQMKDQLCNLLLKESLLEDFKGYLGCQALSEMIQFYLEEVMPQAENQDPDIKAHVNSLGENLKTLRLRLRRCHRFLPCENKSKAVEQVKNAFNKLQEKGIYKAMSEFDIFINYIEAYMTMKIRN
modifications: R4-11 on Cys 44
notes: mature
B19: IL-10 Arg159Cys-S48 (ligand, human, UniProt P22301 19-178, looked up)
chain: SPGQGTQSENSCTHFPGNLPNMLRDLRDAFSRVKTFFQMKDQLDNLLLKESLLEDFKGYLGCQALSEMIQFYLEEVMPQAENQDPDIKAHVNSLGENLKTLRLRLRRCHRFLPCENKSKAVEQVKNAFNKLQEKGIYKAMSEFDIFINYIEAYMTMKICN
modifications: S48 on Cys 159
notes: mature
B20: IL-10 Asp41Cys-S48 (ligand, human, UniProt P22301 19-178, looked up)
chain: SPGQGTQSENSCTHFPGNLPNMLRDLRDAFSRVKTFFQMKCQLDNLLLKESLLEDFKGYLGCQALSEMIQFYLEEVMPQAENQDPDIKAHVNSLGENLKTLRLRLRRCHRFLPCENKSKAVEQVKNAFNKLQEKGIYKAMSEFDIFINYIEAYMTMKIRN
modifications: S48 on Cys 41
notes: mature

molecular target: T1, IL-10R1-Fc (UniProt Q13651 22-235, limits assumed); assay: ELISA, IL-10R1-Fc coated
T1 sequence (looked up): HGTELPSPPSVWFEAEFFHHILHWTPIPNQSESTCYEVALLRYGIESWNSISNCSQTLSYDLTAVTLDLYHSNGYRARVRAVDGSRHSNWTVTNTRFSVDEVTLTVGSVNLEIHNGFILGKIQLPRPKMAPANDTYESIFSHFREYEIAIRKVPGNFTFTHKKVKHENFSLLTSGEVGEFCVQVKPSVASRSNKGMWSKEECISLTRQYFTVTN

Q: For B1, which “Binding recovery (>60%)” value is on record?
A: 101%

Q: For B2, which “Binding recovery (>60%)” value is on record?
A: 97.7%

Q: B3 was tested. Which “Binding recovery (>60%)” value did it give?
A: 84.3%

Q: B4 was tested. Which “Binding recovery (>60%)” value did it give?
A: 86.6%

Q: Which “Binding recovery (>60%)” value does the source give for B5 here?
A: 90.5%

Q: Which “Binding recovery (>60%)” value does the source give for B6 here?
A: 92.3%

Q: For B7, which “Binding recovery (>60%)” value is on record?
A: 95.2%

Q: How did the “Decreased fold of binding to ligand after Conjugating with S48” value (shortened to “Decreased fold of binding to ligand”) turn out when B8 was run?
A: 30 fold

Q: For B9, which “Binding recovery (>60%)” value is on record?
A: 87%

Q: How did the “Decreased fold of binding to ligand” value turn out when B10 was run?
A: 12 fold

Q: B11 was tested. Which “Decreased fold of binding to ligand” value did it give?
A: 43 fold

Q: Which “Binding recovery (>60%)” value does the source give for B12 here?
A: 97.1%

Q: With B13 as the binder, how does the “Decreased fold of binding to ligand” value read?
A: 15 fold

Q: Which “Binding recovery (>60%)” value does the source give for B14 here?
A: 99%

Q: For B15, which “Decreased fold of binding to ligand” value is on record?
A: 7 fold

Q: For B16, which “Decreased fold of binding to ligand” value is on record?
A: 10 fold

Q: B17 was tested. Which “Decreased fold of binding to ligand” value did it give?
A: 52 fold

Q: For B18, which “Binding recovery (>60%)” value is on record?
A: 92.1%

Q: With B19 as the binder, how does the “Decreased fold of binding to ligand” value read?
A: 3 fold

Q: B20 was tested. Which “Decreased fold of binding to ligand” value did it give?
A: 13 fold
